Assay results taken from patent publication US20220025032A1 (Novartis, published 2022).
Where a chain is given by its changes, count along the chain named. Like-named read-outs stand apart in the source and are kept apart here.

B1: NVS2 (Fab, V domains shown)
VH: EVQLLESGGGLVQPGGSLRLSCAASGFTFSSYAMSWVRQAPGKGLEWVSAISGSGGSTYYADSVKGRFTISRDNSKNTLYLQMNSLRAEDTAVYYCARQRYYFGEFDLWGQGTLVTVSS
VL: SYELTQPPSVSVSPGQTASITCSGDKLGDKYAYWYQQKPGQSPVLVIYQDSKRPSGIPERFSGSNSGNTATLTISGTQAEDEADYYCQAFDYLYSLGVFGGGTKLTVLG
notes: also called Fab NVS2; anti-BTC Fab
B2: NVS12 (bispecific antibody)
heavy: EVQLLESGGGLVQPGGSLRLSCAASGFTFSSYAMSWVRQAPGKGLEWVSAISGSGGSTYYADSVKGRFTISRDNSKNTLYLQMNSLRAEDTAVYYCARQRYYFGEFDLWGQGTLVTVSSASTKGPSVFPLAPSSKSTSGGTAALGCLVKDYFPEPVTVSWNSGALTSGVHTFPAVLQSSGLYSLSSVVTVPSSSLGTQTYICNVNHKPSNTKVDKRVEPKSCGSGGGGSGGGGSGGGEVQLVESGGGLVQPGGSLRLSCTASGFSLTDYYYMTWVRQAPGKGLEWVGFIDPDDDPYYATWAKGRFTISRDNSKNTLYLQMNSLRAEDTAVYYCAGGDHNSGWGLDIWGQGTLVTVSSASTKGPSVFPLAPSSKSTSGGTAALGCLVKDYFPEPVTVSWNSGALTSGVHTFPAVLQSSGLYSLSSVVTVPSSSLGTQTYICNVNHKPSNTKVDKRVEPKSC
light: SYELTQPPSVSVSPGQTASITCSGDKLGDKYAYWYQQKPGQSPVLVIYQDSKRPSGIPERFSGSNSGNTATLTISGTQAEDEADYYCQAFDYLYSLGVFGGGTKLTVLGQPKAAPSVTLFPPSSEELQANKATLVCLISDFYPGAVTVAWKADSSPVKAGVETTTPSKQSNNKYAASSYLSLTPEQWKSHRSYSCQVTHEGSTVEKTVAPTECSGSGGGGSGGGGSGGGEIVMTQSPSTLSASVGDRVIITCQASEIIHSWLAWYQQKPGKAPKLLIYLASTLASGVPSRFSGSGSGAEFTLTISSLQPDDFATYYCQNVYLASTNGANFGQGTKLTVLKRTVAAPSVFIFPPSDEQLKSGTASVVCLLNNFYPREAKVQWKVDNALQSGNSQESVTEQDSKDSTYSLSSTLTLSKADYEKHKVYACEVTHQGLSSPVTKSFNRGEC
notes: Fab-Fab: NVS2 Fab, (GSGGG)3 linker, NVS8 Fab; also called anti-BTC/anti-VEGF bispecific Fab; bispecific Fab-Fab
B3: NVS14 (bispecific antibody)
heavy: QVQLLESGGGLVQPGGSLRLSCAASGFTFSRYWISWVRQAPGKGLEWVSYIDSTGTFINYADSVKGRFTISRDNSKNTLYLQMNSLRAEDTAVYYCARGGSLFDYWGQGTLVTVSSASTKGPSVFPLAPSSKSTSGGTAALGCLVKDYFPEPVTVSWNSGALTSGVHTFPAVLQSSGLYSLSSVVTVPSSSLGTQTYICNVNHKPSNTKVDKRVEPKSCGSGGGGSGGGGSGGGEVQLVESGGGLVQPGGSLRLSCTASGFSLTDYYYMTWVRQAPGKGLEWVGFIDPDDDPYYATWAKGRFTISRDNSKNTLYLQMNSLRAEDTAVYYCAGGDHNSGWGLDIWGQGTLVTVSSASTKGPSVFPLAPSSKSTSGGTAALGCLVKDYFPEPVTVSWNSGALTSGVHTFPAVLQSSGLYSLSSVVTVPSSSLGTQTYICNVNHKPSNTKVDKRVEPKSC
light: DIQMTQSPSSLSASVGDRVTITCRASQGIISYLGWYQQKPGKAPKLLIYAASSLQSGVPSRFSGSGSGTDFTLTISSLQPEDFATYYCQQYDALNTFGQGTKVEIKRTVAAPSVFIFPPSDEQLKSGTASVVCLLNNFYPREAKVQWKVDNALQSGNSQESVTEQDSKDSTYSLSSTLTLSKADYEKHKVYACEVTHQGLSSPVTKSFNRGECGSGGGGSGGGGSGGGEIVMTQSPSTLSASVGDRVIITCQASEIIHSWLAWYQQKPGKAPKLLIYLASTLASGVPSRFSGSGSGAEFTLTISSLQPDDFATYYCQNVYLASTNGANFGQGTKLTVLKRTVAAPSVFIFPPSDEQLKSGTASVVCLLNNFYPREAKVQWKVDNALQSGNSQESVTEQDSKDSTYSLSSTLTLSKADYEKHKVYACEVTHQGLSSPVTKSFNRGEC
notes: Fab-Fab: NVS4 Fab, (GSGGG)3 linker, NVS8 Fab; also called anti-BTC/anti-VEGF bispecific Fab; bispecific Fab-Fab
B4: NVS13 (bispecific antibody)
heavy: QVQLLESGGGLVQPGGSLRLSCAASGFTFSSYAMSWVRQAPGKGLEWVSGLGHVGYTTYTDSVKGRFTISRDNSKNTLYLQMNSLRAEDTAVYYCARDYLDFGYYFDVWGQGTLVTVSSASTKGPSVFPLAPSSKSTSGGTAALGCLVKDYFPEPVTVSWNSGALTSGVHTFPAVLQSSGLYSLSSVVTVPSSSLGTQTYICNVNHKPSNTKVDKRVEPKSCGSGGGGSGGGGSGGGEVQLVESGGGLVQPGGSLRLSCTASGFSLTDYYYMTWVRQAPGKGLEWVGFIDPDDDPYYATWAKGRFTISRDNSKNTLYLQMNSLRAEDTAVYYCAGGDHNSGWGLDIWGQGTLVTVSSASTKGPSVFPLAPSSKSTSGGTAALGCLVKDYFPEPVTVSWNSGALTSGVHTFPAVLQSSGLYSLSSVVTVPSSSLGTQTYICNVNHKPSNTKVDKRVEPKSC
light: SYELTQPLSVSVALGQTARITCSGDKIGKKYVHWYQQKPGQAPVLVIYDDSDRPSGIPERFSGSNSGNTATLTISRAQAGDEADYYCQAWDMQSVVFGGGTKLTVLGQPKAAPSVTLFPPSSEELQANKATLVCLISDFYPGAVTVAWKADSSPVKAGVETTTPSKQSNNKYAASSYLSLTPEQWKSHRSYSCQVTHEGSTVEKTVAPTECSGSGGGGSGGGGSGGGEIVMTQSPSTLSASVGDRVIITCQASEIIHSWLAWYQQKPGKAPKLLIYLASTLASGVPSRFSGSGSGAEFTLTISSLQPDDFATYYCQNVYLASTNGANFGQGTKLTVLKRTVAAPSVFIFPPSDEQLKSGTASVVCLLNNFYPREAKVQWKVDNALQSGNSQESVTEQDSKDSTYSLSSTLTLSKADYEKHKVYACEVTHQGLSSPVTKSFNRGEC
notes: Fab-Fab: NVS3 Fab, (GSGGG)3 linker, NVS8 Fab; also called anti-BTC/anti-VEGF bispecific Fab; bispecific Fab-Fab

Legend:
Human BTC [1] = target: T1, Human BTC (human, UniProt P35070 32-111); test: SPR Biacore T200, anti-Fab capture, antigen as analyte
T1 construct: Soluble human BTC of the Biacore, ELISA, MSD and cell assays; also called human betacellulin; soluble human BTC
T1 sequence: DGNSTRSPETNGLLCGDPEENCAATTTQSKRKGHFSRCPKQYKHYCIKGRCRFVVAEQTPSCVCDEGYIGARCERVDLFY

Human BTC [2] = target: T1, Human BTC; test: cell-based inhibition of BTC binding to ErbB4
[3] = target: T2, membrane-bound human BTC on 293F-hBTC cells (human, UniProt P35070 32-111); test: cell-based or functional assay
T2 sequence: T1 sequence

Human BTC [4] = target: T1, Human BTC; test: cell-based or functional assay
Human BTC-avitag-biotin [5] = target: T3, Human BTC-avitag-biotin (human, UniProt P35070 32-111, biotin on the avitag); test: flow cytometry: inhibition of biotin-BTC binding to HKB11 cells over-expressing ErbB1; y axis Fluorescent Intensity
T3 construct: also called biotin-BTC; soluble human BTC-avitag-biotin
T3 sequence: T1 sequence
Description: (§1) In order to assess potency of the Fabs and bispecific in neutralizing binding of BTC to its receptor Erb 1 or ErbB4, the following assay was performed. HKB11 over-expressing either ErbB1 or ErbB4 cells were plated 1×10⁵ cells/well. Cells were washed once with FACS buffer by spun down at 1200 rpm for 5 minutes and supernatant removed. Next, the Fab sample dilutions and BTC were prepared in FACS buffer. Human BTC-avitag-biotin was diluted to a fixed concentration of 15 nM. The test Fab samples were prepared at a starting concentration of 40 nM and titrated for 9 points at a serial dilution of 1:2. Both biotin-BTC and the test Fab samples are incubated for 30 minutes at room temperature. The pre-incubated samples were then added to the cell plate at 100 μl per well in duplicate and incubated for 1 hour on ice. The plate was then washed once in FACS buffer and spun down at 1200 rpm for 5 minutes and supernatant removed. After suspending the cell pellet with 100 μl/well of diluted secondary antibody streptavidin-Alexa Fluor488 (1:2000) in FACS buffer, the cells were then incubated for 60 min on ice. The cells were washed once with FACS buffer and re-suspended in 120 μl of FACS buffer for flow cytometric analysis.
(§2) Measurements were performed on Attune Flow Cytometry machine. Data were analysed using the Flow Jo software. The live cell populations analysed were gated in forward and side scattering (FSC-A/SSC-A dot plot). The interval gate was established on the control histogram, which was obtained with sample incubated in streptavidin-Alexa Fluor488 only, and subsequently, determined percent of positive binding events of cells carrying membrane-bound receptor ErbB1 or ErbB4 and biotin-BTC. The median of fluorescence intensity (MFI) value was also derived for the live cell population. MFI values were then used to calculate for percent inhibition of test sample and subsequently plotted in GraphPad Prism 7.03 using nonlinear regression (curve fit) model to generate IC50 value.

[6] = target: T2, membrane-bound human BTC on 293F-hBTC …; test: flow cytometry on 293F cells with membrane-bound human BTC; y axis % Pos Binding
Description: After washing the cells, the cells were dissociated using Versene at 37° C. The cells were washed with FACS buffer and plated at 100 μl in a 96 well plate using cells at 1×10⁶ cells/ml. Then 100 μl of a serial dilution of antibodies starting at 50 nM was used. The cells were incubated, washed and then treated with the secondary anti-human Fab-FITC antibody. The antibodies only bound to the cells expressing BTC. After which the cells were washed and analyzed on the Attune Flow Cytometry. All data analysis was carried out using Flow Jo software.
In FIG. 6A, Flow cytometry was used to assess the binding of NVS11 to membrane-bound BTC using an anti-human Fab antibody for detection.

Human BTC [7] = target: T1, Human BTC; test: MSD-based inhibition of BTC binding to ErbB1
Human BTC [8] = target: T1, Human BTC; test: cell-based inhibition of BTC binding to ErbB1
Human VEGF165 [9] = target: T4, Human VEGF165 (human, UniProt P15692 27-191); test: SPR Biacore T200, anti-Fab capture
T4 construct: mature; biotinylated in the VEGFR2 ELISAs; also called human VEGF-A; VEGF-A
T4 sequence (P15692 other isoform, or with tags, fused parts or gaps): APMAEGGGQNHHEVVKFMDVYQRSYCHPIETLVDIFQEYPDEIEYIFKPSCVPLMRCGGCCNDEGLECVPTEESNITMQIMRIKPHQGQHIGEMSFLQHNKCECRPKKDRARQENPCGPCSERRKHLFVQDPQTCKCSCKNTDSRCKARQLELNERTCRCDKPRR

Human BTC [10] = target: T1, Human BTC; test: MSD-based inhibition of BTC binding to ErbB4
Rat BTC = target: T5, Rat BTC (rat, UniProt Q9JJM4 32-111); test: SPR (Biacore/ProteOn)
T5 sequence: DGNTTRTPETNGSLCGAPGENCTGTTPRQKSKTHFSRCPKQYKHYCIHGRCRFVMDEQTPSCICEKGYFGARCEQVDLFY

Rabbit BTC = target: T6, Rabbit BTC (rabbit, UniProt G1SJ89 32-111); test: SPR (Biacore/ProteOn)
T6 sequence: T1 sequence with D1S, L14S, D17Y, E19G, A23T, T27V, S29P, V63I, I69T

Mouse BTC = target: T7, Mouse BTC (mouse, UniProt Q05928 32-111, limits assumed); test: SPR (Biacore/ProteOn)
T7 sequence (looked up): T5 sequence with S31V, M55V, Q75R

Cyno BTC = target: T8, Cyno BTC (cynomolgus, UniProt A0A2K5X5E5 32-111); test: SPR (Biacore/ProteOn)
T8 construct: also called cynomolgus BTC
T8 sequence: T1 sequence with E19D, A56T

Human BTC [11] = target: T1, Human BTC; test: SPR (Biacore/ProteOn)
[12] = target: T2, membrane-bound human BTC on 293F-hBTC …; test: flow cytometry, 293F cells with BTC against 293F
Human BTC-avitag-biotin [13] = target: T3, Human BTC-avitag-biotin; test: flow cytometry: inhibition of biotin-BTC binding to HKB11 cells over-expressing ErbB4; y axis Fluorescent Intensity
Description: as §1, §2

Human VEGF165 [14] = target: T4, Human VEGF165; test: SPR Biacore T200, anti-Fab capture, antigen as analyte
Human VEGF165 [15] = target: T4, Human VEGF165; test: competition ELISA: antibody pre-incubated with 400 pM VEGF-biotin, added to coated VEGFR2, streptavidin-HRP detection; y axis OD
Description: (§3) The plates were then washed 3 times using 1λTBST. The plates were blocked in 2% BSA diluent (0.1% Tween 20/0.1% TirtonX100) overnight. After blocking, the plates were washed 3 times using TB ST and then the sample mixture was added at 20 μl/well. The sample mixture consisted a final fixed concentration of VEGF-biotin (in-house) at 400 pM and a 15 point 1:2 serial dilution of the antibody starting at 20 nM. The sample mixture was pre-incubated for 1 hour prior to adding to the plate and then incubated for another hour at room temperature on the plate. Afterwards, the plate was washed 3 times using TBST and 20 μl/well of Streptavidin-HRP diluted at 1:5000 was added for an incubation time of 1 hour. The plates were washed 3 times in TBST and then 20 μl/well of TMB substrate was added. TMB is a chromogen that yields a blue color when oxidized. TMB was incubated for 10 minutes until the signal saturated in the no antibody samples, and then 10 μl/well of 2N sulfuric acid was added which then changes the blue color to yellow and this now has a maximum absorbance at 450 nm.

Human VEGF165 [16] = target: T4, Human VEGF165; test: as above; remark: listed apart in the source
Description: as §3

Binder	Kd (Human BTC [1]) [nM]	IC50 (Human BTC-avitag-biotin [5]) [nM]	EC50 [6] [nM]	IC50 (Human BTC-avitag-biotin [13]) [nM]	Kd (Human VEGF165 [14]) [nM]	further results
B1	0.0047	1.73	0.256	1.83		Cell-based binding inhibition BTC/ErbB4 (Human BTC [2]): > 90%; Neutralization of juxtacrine signaling [3]: 90%; A431 pERK (IC50 in nM) (Human BTC [4]): 0.37 nM; ADR/Res pErbB3 (IC50 in nM) (Human BTC [4]): 6.3 nM; inhibition (Human BTC [4]): 99.7%; MSD-based binding inhibition BTC/ErbB1 (Human BTC [7]): > 90%; Cell-based binding inhibition BTC/ErbB1 (Human BTC [8]): > 90%; binding result (Human VEGF165 [9]): no binding; MSD-based binding inhibition BTC/ErbB4 (Human BTC [10]): > 90%; Kd (Rat BTC): 0.021 nM; Kd (Rabbit BTC): 0.005 nM; Kd (Mouse BTC): 0.009 nM; Kd (Cyno BTC): 0.016 nM; Kd (Human BTC [11]): 0.014 nM; Binding to membrane-anchored BTC (median, X above 293F) [12]: > 10 X above 293F
B2	0.006	1.6	0.137	2.19	0.017	IC50 (Human VEGF165 [15]): 1.2 nM
B3	0.002	2.17		2.32	0.016	IC50 (Human VEGF165 [16]): 1.33 nM
B4	0.0018	1.82	0.194	2.12	0.0065	
